Holding throughout (type): biochemical
Data set [1] is described as follows: HTP-analysis of yeast culture supernatants, no challenge (MUGal hydrolysis). Particulars: activity of the variant/activity of WT GLA (SEQ ID NO: 5), yeast supernatant. The essentials:
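Activity read as 4-methylumbelliferyl α-D-galactopyranoside hydrolysis: fluorescence (355/448 nm) after sodium carbonate stop, following 30-180 min at 37° C with 2 mM MUGal stock at pH 4.6–4.8. Enzyme source is unchallenged culture supernatant of INVSc1 yeast expressing GLA variants, grown 66-84 h at 30° C.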

Data set [2] is described as follows: HTP-analysis of supernatants pretreated with acid (MUGal hydrolysis). Particulars: challenge at pH 4.2; activity of the variant/activity of WT GLA (SEQ ID NO: 5); yeast supernatant. The essentials: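 GLA variants were secreted from INVSc1 yeast grown 66-84 h at 30° C. in SD-Ura with 2% glucose; supernatants were mixed with McIlvaine buffer pH 3.3-4.3 and held at 37° C. for 1-3 h. Residual activity on MUGal at pH 4.8 was then measured by fluorescence.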

Data set [3] is described as follows: HTP-analysis of supernatants pretreated with base (MUGal hydrolysis). Particulars: challenge at pH 7.1; activity of the variant/activity of WT GLA (SEQ ID NO: 5); yeast supernatant. The essentials:
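GLA variants secreted from yeast INVSc1; culture supernatants pre-incubated with McIlvaine buffer pH 7.0–8.2 or 200 mM bicarbonate pH 9.1–9.7 at 37° C. for 1–18 h. Residual activity: MUGal (4 mM stock) hydrolysis at pH 4.3–4.8, 37° C., 30–180 min, carbonate quench; fluorescence Ex 355/Em 448 nm.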

B1: 106 (protein)
chain: LDNGLARTPTMGWLHWERFMCNLDCQEEPDSCISEKLFMEMAELMVSEGWKDAGYEYLCIDDCWMAPQRDSEGRLQADPQRFPHGIRQLANYVHSKGLKLGIYADVGNKTCAGFPGSFGYYDIDAQTFADWGVDLLKFDGCYCDSLENLADGYKHMSLALNRTGRSIVYSCEWPLYMWPFQKPNYTEIRQYCNHWRNFADIDDSWKSIKSILDWTSFNQERIVDVAGPGGWNDPDMLVIGNFGLSWNQQVTQMALWAIMAAPLFMSNDLRHISPQAKALLQDKDVIAINQDPLGKQGYQLRQGDNFEVWERPLSGLAWAVAMINRQEIGGPRSYTIAVASLGKGVACNPACFITQLLPVKRKLGFYEWTSRLRSHINPTGTVLLQLENTMQMSRDLLL
modifications: Synthetic Polypeptide sequence of Variant No. 106 of mature Human GLA
In the case of B1, the “Relative Activity of GLA Variants After No Challenge (NC)” value in data set [1] is reported as “++ (++ = >1.5 to 2.5 relative activity over WT GLA (SEQ ID NO: 5))”. In data set [2], the “Relative Activity of GLA Variants After Challenge at pH 4.2” value (“Relative Activity … at pH 4.2” below) is given as “++ (++ = >1.5 to 2.5 relative activity over WT GLA (SEQ ID NO: 5))”. For the same molecule, the “Relative Activity of GLA Variants After Challenge at pH 7.1” value (from here on “Relative Activity … at pH 7.1”) in data set [3] is recorded as “+++ (+++ = >2.5 relative activity over WT GLA (SEQ ID NO: 5))”.

B2: 113 (protein)
chain: LDNGLARTPTMGWLHWERFMCNLDCQEEPDSCISEKLFMEMAELMVSEGWKDAGYEYLCIDDCWMAPQRDSEGRLQADPQRFPHGIRQLANYVHSKGLKLGIYADVGNKTCAGFPGSFGYYDIDAQTFADWGVDLLKFDGCYCDSLENLADGYKHMSLALNRTGRSIVYSCEWPLYMWPFQKPNYTEIRQYCNHWRNFADIDDSWKSIKSILDWTSFNQERIVDVAGPGGWNDPDMLVIGNFGLSWNQQVTQMALWAIMAAPLFMSNDLRHISPQAKALLQDKDVIAINQDPLGKQGYQLRQGDNFEVWERPLSGLAWAVAMINRQEIGGPRSYTIAVASLGKGVACNPACFITQLLPVKRKLGFYEWTSRLRSHINPTGTVLLQLENTMQMSKDLQL
modifications: Synthetic Polypeptide sequence of Variant No. 113 of mature Human GLA
Regarding B2, in data set [1], the “Relative Activity of GLA Variants After No Challenge (NC)” value is “++ (++ = >1.5 to 2.5 relative activity over WT GLA (SEQ ID NO: 5))”. In addition, the “Relative Activity … at pH 4.2” value in data set [2] is recorded as “+ (+ = 0.5 to 1.5 relative activity over WT GLA (SEQ ID NO: 5))”. Also, the “Relative Activity … at pH 7.1” value in data set [3] is “+++ (+++ = >2.5 relative activity over WT GLA (SEQ ID NO: 5))”.

B3: 112 (protein)
chain: LDNGLARTPTMGWLHWERFMCNLDCQEEPDSCISEKLFMEMAELMVSEGWKDAGYEYLCIDDCWMAPQRDSEGRLQADPQRFPHGIRQLANYVHSKGLKLGIYADVGNKTCAGFPGSFGYYDIDAQTFADWGVDLLKFDGCYCDSLENLADGYKHMSLALNRTGRSIVYSCEWPLYMWPFQKPNYTEIRQYCNHWRNFADIDDSWKSIKSILDWTSFNQERIVDVAGPGGWNDPDMLVIGNFGLSWNQQVTQMALWAIMAAPLFMSNDLRHISPQAKALLQDKDVIAINQDPLGKQGYQLRQGDNFEVWERPLSGLAWAVAMINRQEIGGPRSYTIAVASLGKGVACNPACFITQLLPVKRKLGFYEWTSRLRSHINPTGTVLLQLENTMQMSKDLIL
modifications: Synthetic Polypeptide sequence of Variant No. 112 of mature Human GLA
With B3, the “Relative Activity of GLA Variants After No Challenge (NC)” value in data set [1] is “+ (+ = 0.5 to 1.5 relative activity over WT GLA (SEQ ID NO: 5))”. Besides, the “Relative Activity … at pH 4.2” value in data set [2] is on record as “++ (++ = >1.5 to 2.5 relative activity over WT GLA (SEQ ID NO: 5))”. Besides, the “Relative Activity … at pH 7.1” value in data set [3] is on record as “+ (+ = 0.5 to 1.5 relative activity over WT GLA (SEQ ID NO: 5))”.

B4: 34 (protein)
chain: LDNGLARTPTMGWLHWERFMCNLDCQEEPDSCISEKLFMEMAELMVSEGWKDAGYEYLCIDDCWMAPQRDSEGRLQADPQRFPHGIRQLANYVHSKGLKLGIYADVGNKTCAGFPGSFGYYDIDAQTFADWGVDLLKFDGCYCDSLENLADGYKHMSLALNRTGRSIVYSCEWPLYMWPFQKPNYTEIRQYCNHWRNFADIDDSWKSIKSILDWTSFNQERIVDVAGPGGWNDPDMLVIGNFGLSWNQQVTQMALWAIMAAPLFMSNDLRHISPQAKALLQDKDVIAINQDPLGKQGYQLRQGDNFEVWERPLSGLAWAVAMINRQEIGGPRSYTIPVASLGKGVACNPACFITQLLPVKRKLGFYEWTSRLRSHINPTGTVLLQLENTMQMSKDLLL
modifications: Synthetic Polypeptide sequence of Variant No. 34 of mature Human GLA
Consider B4, for which, in data set [1], the “Relative Activity of GLA Variants After No Challenge (NC)” value is on record as “+ (+ = 0.5 to 1.5 relative activity over WT GLA (SEQ ID NO: 5))”. Besides, the “Relative Activity … at pH 4.2” value in data set [2] is listed as “++ (++ = >1.5 to 2.5 relative activity over WT GLA (SEQ ID NO: 5))”. Besides, the “Relative Activity … at pH 7.1” value in data set [3] is “++ (++ = >1.5 to 2.5 relative activity over WT GLA (SEQ ID NO: 5))”.

B5: 111 (protein)
chain: LDNGLARTPTMGWLHWERFMCNLDCQEEPDSCISEKLFMEMAELMVSEGWKDAGYEYLCIDDCWMAPQRDSEGRLQADPQRFPHGIRQLANYVHSKGLKLGIYADVGNKTCAGFPGSFGYYDIDAQTFADWGVDLLKFDGCYCDSLENLADGYKHMSLALNRTGRSIVYSCEWPLYMWPFQKPNYTEIRQYCNHWRNFADIDDSWKSIKSILDWTSFNQERIVDVAGPGGWNDPDMLVIGNFGLSWNQQVTQMALWAIMAAPLFMSNDLRHISPQAKALLQDKDVIAINQDPLGKQGYQLRQGDNFEVWERPLSGLAWAVAMINRQEIGGPRSYTIAVASLGKGVACNPACFITQLLPVKRKLGFYEWTSRLRSHINPTGTVLLQLENTMQMSKDLHL
modifications: Synthetic Polypeptide sequence of Variant No. 111 of mature Human GLA
With B5, in data set [1], the “Relative Activity of GLA Variants After No Challenge (NC)” value is listed as “++ (++ = >1.5 to 2.5 relative activity over WT GLA (SEQ ID NO: 5))”. Also, the “Relative Activity … at pH 4.2” value in data set [2] is given as “++ (++ = >1.5 to 2.5 relative activity over WT GLA (SEQ ID NO: 5))”. In addition, the “Relative Activity … at pH 7.1” value in data set [3] was “++ (++ = >1.5 to 2.5 relative activity over WT GLA (SEQ ID NO: 5))”.

B6: 107 (protein)
chain: LDNGLARTPTMGWLHWERFMCNLDCQEEPDSCISEKLFMEMAELMVSEGWKDAGYEYLCIDDCWMAPQRDSEGRLQADPQRFPHGIRQLANYVHSKGLKLGIYADVGNKTCAGFPGSFGYYDIDAQTFADWGVDLLKFDGCYCDSLENLADGYKHMSLALNRTGRSIVYSCEWPLYMWPFQKPNYTEIRQYCNHWRNFADIDDSWKSIKSILDWTSFNQERIVDVAGPGGWNDPDMLVIGNFGLSWNQQVTQMALWAIMAAPLFMSNDLRHISPQAKALLQDKDVIAINQDPLGKQGYQLRQGDNFEVWERPLSGLAWAVAMINRQEIGGPRSYTIAVASLGKGVACNPACFITQLLPVKRKLGFYEWTSRLRSHINPTGTVLLQLENTMQMSSDLLL
modifications: Synthetic Polypeptide sequence of Variant No. 107 of mature Human GLA
Regarding B6, in data set [1], the “Relative Activity of GLA Variants After No Challenge (NC)” value is on record as “+++ (+++ = >2.5 relative activity over WT GLA (SEQ ID NO: 5))”. Further, the “Relative Activity … at pH 4.2” value in data set [2] is recorded as “+++ (+++ = >2.5 relative activity over WT GLA (SEQ ID NO: 5))”. The “Relative Activity … at pH 7.1” value in data set [3] is recorded as “+++ (+++ = >2.5 relative activity over WT GLA (SEQ ID NO: 5))”.

B7: 108 (protein)
chain: LDNGLARTPTMGWLHWERFMCNLDCQEEPDSCISEKLFMEMAELMVSEGWKDAGYEYLCIDDCWMAPQRDSEGRLQADPQRFPHGIRQLANYVHSKGLKLGIYADVGNKTCAGFPGSFGYYDIDAQTFADWGVDLLKFDGCYCDSLENLADGYKHMSLALNRTGRSIVYSCEWPLYMWPFQKPNYTEIRQYCNHWRNFADIDDSWKSIKSILDWTSFNQERIVDVAGPGGWNDPDMLVIGNFGLSWNQQVTQMALWAIMAAPLFMSNDLRHISPQAKALLQDKDVIAINQDPLGKQGYQLRQGDNFEVWERPLSGLAWAVAMINRQEIGGPRSYTIAVASLGKGVACNPACFITQLLPVKRKLGFYEWTSRLRSHINPTGTVLLQLENTMQMSTDLLL
modifications: Synthetic Polypeptide sequence of Variant No. 108 of mature Human GLA
In the case of B7, the “Relative Activity of GLA Variants After No Challenge (NC)” value in data set [1] was “+++ (+++ = >2.5 relative activity over WT GLA (SEQ ID NO: 5))”. Further, the “Relative Activity … at pH 4.2” value in data set [2] was “+++ (+++ = >2.5 relative activity over WT GLA (SEQ ID NO: 5))”. Moreover, the “Relative Activity … at pH 7.1” value in data set [3] is listed as “+++ (+++ = >2.5 relative activity over WT GLA (SEQ ID NO: 5))”.

B8: 110 (protein)
chain: LDNGLARTPTMGWLHWERFMCNLDCQEEPDSCISEKLFMEMAELMVSEGWKDAGYEYLCIDDCWMAPQRDSEGRLQADPQRFPHGIRQLANYVHSKGLKLGIYADVGNKTCAGFPGSFGYYDIDAQTFADWGVDLLKFDGCYCDSLENLADGYKHMSLALNRTGRSIVYSCEWPLYMWPFQKPNYTEIRQYCNHWRNFADIDDSWKSIKSILDWTSFNQERIVDVAGPGGWNDPDMLVIGNFGLSWNQQVTQMALWAIMAAPLFMSNDLRHISPQAKALLQDKDVIAINQDPLGKQGYQLRQGDNFEVWERPLSGLAWAVAMINRQEIGGPRSYTIAVASLGKGVACNPACFITQLLPVKRKLGFYEWTSRLRSHINPTGTVLLQLENTMQMSKDLDL
modifications: Synthetic Polypeptide sequence of Variant No. 110 of mature Human GLA
As to B8, the “Relative Activity of GLA Variants After No Challenge (NC)” value in data set [1] is recorded as “+++ (+++ = >2.5 relative activity over WT GLA (SEQ ID NO: 5))”. Moreover, the “Relative Activity … at pH 4.2” value in data set [2] was “++ (++ = >1.5 to 2.5 relative activity over WT GLA (SEQ ID NO: 5))”. Also, the “Relative Activity … at pH 7.1” value in data set [3] is listed as “+++ (+++ = >2.5 relative activity over WT GLA (SEQ ID NO: 5))”.

The record behind these values is patent US11278600B2, “Human alpha-galactosidase variants” (Codexis, Inc., priority 2014, dated 2022).
